Data as given in paper PMC3351151 (Nucleic Acids Research, 2012).

Molecular target: the molecule itself
Experiment: crystal structure

B1: His-HypR (His-tagged HypR, wild type), oxidized by diamide or NaOCl (natural protein, B. subtilis, UniProt P37486 1-125, looked up)
chain: MSEKKNIYPNKEGCPVEFTLDVIGGKWKGILFYHMIDGKKRFNEFRRICPSITQRMLTLQLRELEADGIVHREVYHQVPPKVEYSLTEFGRTLEPIVLQMKEWGESNRDVLESYRSNGLVKDQQK
modifications: Cys14-Cys49' intersubunit disulphide after oxidation with diamide or NaOCl
Q: Which “stoichiometry N” value does the source give for B1 here?
A: The value was 2.
